Measurements reported in the supplement of paper PMC6757056.
± gives the standard deviation of the averaged measurements.

B1: library; a variant is named by its letters at N, in order (parent)
chain: GCUGUCACCGAGAAACUGUGAAGUAUAUCUUAAACCUGGGCACUUAAAAGAUAUAUGGAGUUAGUAGUGCAACCUGCUCGGUCUGAUGAGUCCNNNNNNGGACGAAACAGC

How the values were obtained:
[1] = variants of: B1; test: normalized RNA/DNA level without ligand (relative to sTRSVctl = 100) (log10 (% of sTRSVctl)); HEK293T; ligand: cyclic di-GMP (c-di-GMP-II aptamer); higher = less ribozyme self-cleavage, higher mRNA level; conditions: reporter: mCherry (pCS4076), ligand present: no
How it was run: (§1)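 HEK293T cells were transfected with library plasmids carrying ribozyme switches linked to an mCherry reporter, or an eGFP reporter in some ligand experiments, at 4 µg per well of a 6-well plate, with any ligand added 1 h beforehand. After 72 h, total RNA was extracted with EDTA, reverse-transcribed, amplified, barcoded and sequenced. RNA level was defined as RNA reads over DNA reads, normalized to a spiked-in non-cleaving sequence or to the top-ranked sequences. That value was multiplied by 100 and converted to log10, the top set was 25 sequences, and only sequences with ≥100 DNA reads were retained.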

[2] = variants of: B1; test: normalized RNA/DNA level with ligand (relative to sTRSVctl = 100) (log10 (% of sTRSVctl)); HEK293T; ligand: cyclic di-GMP (c-di-GMP-II aptamer); ligand concentration (+) RNA-Seq: 1 mM; higher = less ribozyme self-cleavage, higher mRNA level; conditions: reporter: mCherry (pCS4076), ligand present: yes
How it was run: as §1

| Variant | normalized RNA/DNA level without ligand (log10) [1] | normalized RNA/DNA level with ligand (log10) [2] |
| --- | --- | --- |
| GCUGUCACCGAGAAACUGUGAAGUAUAUCUUAAACCUGGGCACUUAAAAGAUAUAUGGAGUUAGUAGUGCAACCUGCUCGGUCUGAUGAGUCCAGAGCGGGACGAAACAGC | 1.81 ± 0.05 | 1.84 ± 0.17 |
| GCUGUCACCGAGAAACUGUGAAGUAUAUCUUAAACCUGGGCACUUAAAAGAUAUAUGGAGUUAGUAGUGCAACCUGCUCGGUCUGAUGAGUCCGUUGUCGGACGAAACAGC | 1.53 ± 0.11 | 1.73 ± 0.087 |
| GCUGUCACCGAGAAACUGUGAAGUAUAUCUUAAACCUGGGCACUUAAAAGAUAUAUGGAGUUAGUAGUGCAACCUGCUCGGUCUGAUGAGUCCUUCUAUGGACGAAACAGC | 1.721 ± 0.0074 | 1.83 ± 0.11 |
| GCUGUCACCGAGAAACUGUGAAGUAUAUCUUAAACCUGGGCACUUAAAAGAUAUAUGGAGUUAGUAGUGCAACCUGCUCGGUCUGAUGAGUCCGAACCUGGACGAAACAGC | 1.69 ± 0.033 | 1.86 ± 0.08 |
| GCUGUCACCGAGAAACUGUGAAGUAUAUCUUAAACCUGGGCACUUAAAAGAUAUAUGGAGUUAGUAGUGCAACCUGCUCGGUCUGAUGAGUCCCGCCCCGGACGAAACAGC | 1.818 ± 0.0078 | 1.9 ± 0.1 |
| GCUGUCACCGAGAAACUGUGAAGUAUAUCUUAAACCUGGGCACUUAAAAGAUAUAUGGAGUUAGUAGUGCAACCUGCUCGGUCUGAUGAGUCCAAAUGGGGACGAAACAGC | 1.5 ± 0.092 | 1.68 ± 0.076 |
| GCUGUCACCGAGAAACUGUGAAGUAUAUCUUAAACCUGGGCACUUAAAAGAUAUAUGGAGUUAGUAGUGCAACCUGCUCGGUCUGAUGAGUCCACAGUAGGACGAAACAGC | 1.31 ± 0.048 | 1.51 ± 0.15 |
| GCUGUCACCGAGAAACUGUGAAGUAUAUCUUAAACCUGGGCACUUAAAAGAUAUAUGGAGUUAGUAGUGCAACCUGCUCGGUCUGAUGAGUCCUAUGGGGGACGAAACAGC | 1.57 ± 0.078 | 1.73 ± 0.1 |
| GCUGUCACCGAGAAACUGUGAAGUAUAUCUUAAACCUGGGCACUUAAAAGAUAUAUGGAGUUAGUAGUGCAACCUGCUCGGUCUGAUGAGUCCAGGAGUGGACGAAACAGC | 1.52 ± 0.084 | 1.67 ± 0.058 |
| GCUGUCACCGAGAAACUGUGAAGUAUAUCUUAAACCUGGGCACUUAAAAGAUAUAUGGAGUUAGUAGUGCAACCUGCUCGGUCUGAUGAGUCCGUUCACGGACGAAACAGC | 1.737 ± 0.013 | 1.87 ± 0.09 |
| GCUGUCACCGAGAAACUGUGAAGUAUAUCUUAAACCUGGGCACUUAAAAGAUAUAUGGAGUUAGUAGUGCAACCUGCUCGGUCUGAUGAGUCCGGACACGGACGAAACAGC | 1.71 ± 0.053 | 1.84 ± 0.13 |
| GCUGUCACCGAGAAACUGUGAAGUAUAUCUUAAACCUGGGCACUUAAAAGAUAUAUGGAGUUAGUAGUGCAACCUGCUCGGUCUGAUGAGUCCCCAUACGGACGAAACAGC | 1.632 ± 0.0016 | 1.78 ± 0.075 |
| GCUGUCACCGAGAAACUGUGAAGUAUAUCUUAAACCUGGGCACUUAAAAGAUAUAUGGAGUUAGUAGUGCAACCUGCUCGGUCUGAUGAGUCCAGUUAUGGACGAAACAGC | 1.67 ± 0.06 | 1.86 ± 0.11 |
